Measurements from article PMC10349818.

Experiments:
[1] = biological target: NavAb N49K/L176G mutant (Arcobacter butzleri) (UniProt A8EVM5); assay: crystal structure; protein in DMPC:CHAPSO bicelles, sitting-drop vapour diffusion at 20 °C; cryoprotectant with 2.5 M sodium chloride, with or without 100 mM calcium nitrate; homotetramer around the four-fold axis
[2] = biological target: NavAb N49K/L176Q mutant (Arcobacter butzleri) (UniProt A8EVM5); assay: as above

Substance | stoichiometry N [1] | stoichiometry N [2]
NavAb N49K/L176G mutant (from UniProt A8EVM5 1-267) (natural protein) | 4 | 
NavAb N49K/L176Q mutant (from UniProt A8EVM5 1-267) (natural protein) |  | 4
